Assays:
Botrytis cinerea conidia = test: In vitro liquid-based assay (fungal biomass, 96-well plates, Cytation 5); type: cell-based; settings: co-incubated with conidia for three days, vs untreated control
In short: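 Conidia (5000/mL stock) were co-incubated with dsRNA or control treatments in pH 6.0 minimal medium. Incubation ran 72 h at 23 °C, shaking at 120 rpm under continuous light. Fungal biomass was measured by brightfield imaging (8 slices per well, 2.5× lens) and expressed as average reduction versus control.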

[1] = system: Botrytis cinerea isolate (B05.10); test: Detached leaf assay (tomato leaflets, lesion size); type: in vivo; settings: five days post inoculation, vs untreated inoculated control
In short: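 Tomato (Brandywine) detached lateral leaflets were sprayed with treatment in 0.03% Silwet L-77 24 h before inoculation. Two 10 μL drops of 1×10^5 conidia/mL in 7% grape juice were applied per leaflet, which was then incubated at 23 °C, ~75% RH, 12/12 light. Lesion diameter was measured at 5 DPI against the untreated inoculated control, ten replicates.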

[2] = system: Botrytis cinerea B05.10 isolate; test: Greenhouse whole plant assay (tomato 'Lanai', disease severity); type: in vivo; settings: final rating day (rating #3)
Protocol: Plant Tissue: Tomato seedlings, variety “Lanai”, were seeded then thinned to one plant per pot in an 18 cell tray. […] Plants were grown at a 23° C./17° C. day/night temperature with 10 hours of light each 24-hour period. The RH was ambient and plants were fertilized two times a day every day except for Sunday when they received only water. Plants were grown using Fafard brand medium (70-80% sphagnum peat moss, perlite, vermiculite, dolomite limestone and watering agent) for the entire experiment.
Fungal culture. A Botrytis cinerea B05.10 isolate was maintained, and spores were harvested as previously described for detached leaf assays, except a grape juice additive was not used for inoculum preparation.
Treatment of plants. Whole tomato plants were treated ˜24 hours before inoculation using the spray booth. A 0.07% Silwet L-77 solution was used as a spreader and added for a 0.07% final volume in water (Silwet L-77 brand Phyto Technology Laboratories, S7777 Lot #14D7777001 F). The spray booth deck was set to 20″ above the plant canopy and a twinjet 8002EVS nozzle with 100 mesh filter placed into the spray mechanism. The spray boom was calibrated before treatment application with specs as follows: 50 GPA rate, 1.25 MPH speed, 6′ spray length, single pass, and at 45 psi to get a catch of 133 mL in 10 seconds (+/−6 mL). Each treatment was replicated ten times for each experimental run.
Inoculation. Plants were inoculated using a mist-o-matic applicator, which is pressurized by manual pumping. The inoculum suspension was poured into the mist-o-matic immediately before inoculation in the GH space. The containers were only filled half-way and inoculum was applied evenly to the surface of all foliage with even coverage.
Incubation. Plants were incubated inside of a 40″ tall humidity chamber supported by PVC pipe and covered in 3M translucent plastic. A humidifier was inside the chamber and set to low and continuous humidity (filled with tap water). The temperature was D:24-20° C./N:20-18° C. with 15 hours of light, of which 9 hours was with supplemental lighting. RH was ambient and watering occurred everyday by sub-irrigation with the bench being flooded for 10 minutes before draining.
Rating. Tomato plants were rated three times during the two-week experiment with rating starting four days post-inoculation and occurring every three to four days after the initial rating date. Plants were rated for the number of lesions and disease severity, which is the percentage of the plant that was symptomatic including necrotic lesions, pathogen sporulation, and chlorosis.
Data analysis. […] Percent disease severity (%DS) was determined by the percent area of the tomato foliage with symptoms including lesions, chlorosis, necrosis, and wilting. Disease severity was rated at three dates (Rating #) over the 12-day test period. Treatments were compared to the untreated, inoculated control and a chemical standard. Statistical analysis was done using SAS JMP version 13.2.1 with treatments compared to the untreated, inoculated control and a chemical standard using Tukey-Kramer and student's T tests.

[3] = 8 g ai/ha, two runs, three-week-old 'Lanai' tomato plant
[4] = 25 g ai/ha, two runs, three-week-old 'Lanai' tomato plant

Molecule | Average % Reduction in Biomass (Botrytis cinerea conidia; 25 ppm dsRNA) | Average % Reduction in Biomass (Botrytis cinerea conidia; 150 ppm dsRNA) | Average % Reduction in Lesion Size ([1]; 30 ppm) | Average % Reduction in Lesion Size ([1]; 50 ppm) | % control [2, 3] | % control [2, 4] | % control ([2]; 25 g ai/ha, three runs, four-week-old 'Lanai' tomato plant)
GS728: dsRNA trigger targeting B. cinerea XM_024691746.1; trigger SEQ ID NO 18, RNA 30, reverse complement 42 (nucleic acid, listed as Botrytis cinerea) sense: CACAAGAAGCAUGGGGUAUGAAGAGAUAAGUUGUGGCUGGUGAACAACUAAAUCGACAUUUUCCGUCCCCACAGCACCUUUCGAACACUGAAUUCAAUUAAUUAUACACUGUUCCAGUAUCCACUUCCACUUCCACUCCCACAAAACAUACAAUACUACGAUAAUACGAUUUUACGAUAACGUCCAGCCUUGAGGACAACAAGUCAGAUGAAAAUCACGAGAUGGCAUUGUUUUUGAUGUUAGUAAAUGCUAUACCGACGGUAAUCGGCACUGCUGAAGCAUUAGAUGUUCAGAAGAAGGAAGAUUUGGCCCAGAAGCACAAGGCAAAGUUUUUCAUGACGGCGAAUUUUGCUUUGGAUGGAAAGGUUGCUCAUGAAAAAGAAUCACAGGUCGUCCUACGCGAUAACAGGAUGUACUUAAACCACCCAGAUGCGCCGAAAGAAGGACAUCGAUUUUGUGGUUACUAUUUCAUGUAUC antisense: GAUACAUGAAAUAGUAACCACAAAAUCGAUGUCCUUCUUUCGGCGCAUCUGGGUGGUUUAAGUACAUCCUGUUAUCGCGUAGGACGACCUGUGAUUCUUUUUCAUGAGCAACCUUUCCAUCCAAAGCAAAAUUCGCCGUCAUGAAAAACUUUGCCUUGUGCUUCUGGGCCAAAUCUUCCUUCUUCUGAACAUCUAAUGCUUCAGCAGUGCCGAUUACCGUCGGUAUAGCAUUUACUAACAUCAAAAACAAUGCCAUCUCGUGAUUUUCAUCUGACUUGUUGUCCUCAAGGCUGGACGUUAUCGUAAAAUCGUAUUAUCGUAGUAUUGUAUGUUUUGUGGGAGUGGAAGUGGAAGUGGAUACUGGAACAGUGUAUAAUUAAUUGAAUUCAGUGUUCGAAAGGUGCUGUGGGGACGGAAAAUGUCGAUUUAGUUGUUCACCAGCCACAACUUAUCUCUUCAUACCCCAUGCUUCUUGUG | 20% | 35% | 20.16% | 16.48% | 27% | 37% | –
GS686: dsRNA trigger targeting B. cinerea Bcrrp1 (XM_001550365.2); trigger SEQ ID NO 17, RNA 29, reverse complement 41 (nucleic acid, listed as Botrytis cinerea) sense: CCCCUCCACCCAAGCACCUUUCUACACCGGAUUCUGGGAAAUCAUGUCCAAAGAAUGGGAACGCAUUGAUGUGCUGCGCAUGGAGAAAUUCCUGCUGCUAGUGAGACGCUAUUUGGCAGCUGGUUUUGAGGUUGUGGUAUCCAGCUCUUCCGCACCUGCGGGAAAGAAAAACAAGACGAAAGCUUCGAAGAAAGUGAUUUCGGAAUCCGGAGAGCAGGUAUUAGAAGUCCUAUCUUCCAUUCCCUGUGGUUCGGGCCCCGAUGCGCAACGCACACCGAAUGGAAUGCGCUUCCACGUAAUCGAUAUCUGGAUCGACGAGCUUGAGAAACUGGGUGUGAUCGACGCAGCGAAGGAGAGUGAAGAGGGCGCUGAGAAAUUAGAGAAAUUACUGGAGCCGUUGAGGAAAUUGGGAAAGGAGAGCAUUAAUAAGACGGUCAGGAAUAAGUGUAAGGAGGC antisense: GCCUCCUUACACUUAUUCCUGACCGUCUUAUUAAUGCUCUCCUUUCCCAAUUUCCUCAACGGCUCCAGUAAUUUCUCUAAUUUCUCAGCGCCCUCUUCACUCUCCUUCGCUGCGUCGAUCACACCCAGUUUCUCAAGCUCGUCGAUCCAGAUAUCGAUUACGUGGAAGCGCAUUCCAUUCGGUGUGCGUUGCGCAUCGGGGCCCGAACCACAGGGAAUGGAAGAUAGGACUUCUAAUACCUGCUCUCCGGAUUCCGAAAUCACUUUCUUCGAAGCUUUCGUCUUGUUUUUCUUUCCCGCAGGUGCGGAAGAGCUGGAUACCACAACCUCAAAACCAGCUGCCAAAUAGCGUCUCACUAGCAGCAGGAAUUUCUCCAUGCGCAGCACAUCAAUGCGUUCCCAUUCUUUGGACAUGAUUUCCCAGAAUCCGGUGUAGAAAGGUGCUUGGGUGGAGGGG | 16% | 37% | 39.61% | 33.29% | 31% | 14% | –
GS793: dsRNA trigger targeting B. cinerea Bcswd2 (XM_024694665.1); trigger SEQ ID NO 20, RNA 32, reverse complement 44 (nucleic acid, listed as Botrytis cinerea) sense: CUGCGUCACUAUAUGGUCCUAGACUUUUCAACUCCCUCUUUGAAGCUUACACAACAUCUUGGAAAAGUAUAAAAACAACAACAAGAAACAUGUCGUCAACCCCUAUGGCGAUAGACUCUCCAUUAGGUGCGAAUGGUACUUCCAUGUUGAAAGCAAACGGAGUCUCAUCAGUCCCACAGACUGGCAAACUGACUGAGAUGAUCUCAUUAUACCAUCCAGUCAAGCUUUUCAAACAUCCUCCGACACCUGCAGACAAAGGGCAAACUCCUCCGAGUUACAACUUUAUUCAGUCUAUCAAUUUCAAUGACAAUGGCAGUCAGCUUAUCACGUCAGAAACUGAUAACACUAUGCAAAUAUAUGAUGUUCUCGAAGGAAGACAUUCAAAAAUGAAUAUUAGUGCCAAGUAUGGUUGUAACCAUGCAAUGUUUGGCCAUGCUGAACAUUGUAUAAUCCAUUCUAGUACCAAAAAAGACCACAA antisense: UUGUGGUCUUUUUUGGUACUAGAAUGGAUUAUACAAUGUUCAGCAUGGCCAAACAUUGCAUGGUUACAACCAUACUUGGCACUAAUAUUCAUUUUUGAAUGUCUUCCUUCGAGAACAUCAUAUAUUUGCAUAGUGUUAUCAGUUUCUGACGUGAUAAGCUGACUGCCAUUGUCAUUGAAAUUGAUAGACUGAAUAAAGUUGUAACUCGGAGGAGUUUGCCCUUUGUCUGCAGGUGUCGGAGGAUGUUUGAAAAGCUUGACUGGAUGGUAUAAUGAGAUCAUCUCAGUCAGUUUGCCAGUCUGUGGGACUGAUGAGACUCCGUUUGCUUUCAACAUGGAAGUACCAUUCGCACCUAAUGGAGAGUCUAUCGCCAUAGGGGUUGACGACAUGUUUCUUGUUGUUGUUUUUAUACUUUUCCAAGAUGUUGUGUAAGCUUCAAAGAGGGAGUUGAAAAGUCUAGGACCAUAUAGUGACGCAG | 13% | 36% | 55.26% | 57.69% | – | – | 24%

— patent US20230189818A1, “RNA-BASED CONTROL OF BOTRYTIS” (priority 2021, published 2023)
